Results published in the NTF2 design screens of Basanta et al. (2020).

Assay: protease stability score; higher = more stable; yeast display proteolysis, trypsin and chymotrypsin;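 note: relative to predicted unfolded state with 0 unfolded-like and 1 meaning tenfold more protease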

Row | Sequence | protease stability score
1 | DEEEELSKIAYHLTEHIWETGDEDLLKELLDPNTQVTQGEWHVHGRESMHRFLRHVRERLGVDQIDVDVKSVRAFNGVVTTHVNLHFNGRTYTMTLFSNKYNGKWTVKSMKIQ | 1.29
2 | DEEEELSKRLVELLLKLLKTGNEEELIKNADPHAKVQIRINGREFIHHGWEAFSHLWRHYIIKFKNIRIHDRHMEIQGDWVHIHSEEQIGDKRIEVEIRIQIINGVQKNVHIDIHEH | 1.47
3 | DEEEELSTEVMEHVLELVLTGDEERLWKLFDPHVRLDIDGKHIIGRELVSKINKDRRRELRIHHVELKRFETQGEKVHSDIRVDGWIDGRRIDTDAHVIVVVVDGRLKSLRIIHH | 1.18
4 | DEEEELTKRFLDIMLHNLKTGNEEEISKMADPNVKLDIGDKENHGRESMSRAWHEELRRLGAKHIDVRSVELQGDKLIIRMRLEVDGRTFEVLIIIIVVDGRLKHIQFKSH | 0.704
5 | DEEEELTKRWIDHLLRLWNTGDEHHFLKMADPHVRIEQGDKEHIGREEMYRWLQQFKNIRLHIDDIDIQGDFLNIDGYINFNGVHREAKVHIRVINGKLHSIIIRIK | 1.3
6 | DEEEELTRLALEWLLKVSKTGDERLFREEFDPNVKLDINGRDFHGREEAVRVWLKFVHDAGFKHIEIERVLSFDGRLHLHGVEHIGDKEVETHILTEKFDGKWVMRSIKIN | 0.301
7 | DEEEELVIHVAHEILHNHLTGDEERWEELADPRTKVEFNGVQNHGREFTNEYRKEFHNRYDHWEIRIRDYRVIDGVAHFDTELIIRQGDKEIRVKVHLEFIIVNGKVSEIRIEVR | 0.607
8 | DEEEELVLRIMHELLKLVLTGDFKRLSELLDPNVRMEIVVGDKHIEEHGRERMSHWILEWLRHARVKEFRIHHLIAYDGQTDSNVRLNVRIGDKEHRFRVIVILQVIDGKIRSLTIIFE | 1.51
9 | DEEEELVREFLHRLKQSHETGDEKMYRENADPDVRIEVNGVTIHGMERATRWASEMRFKHEELRHIEVDENHVHIDGIVKGRINGRDVETKVHFHVRKVNGVWLLKRIKFT | 0.956
10 | DEEEELVRLATEHSLELMRTGDWSHLHKLMDPHALLSVNGREVHGRENAVRLIITILEDLGVKHFHLEHVEVIDGRVNIDGRLHQGDKKLNNEIWLVKINGRWRLKSIHIELK | 1.17
11 | DEEEELWKELSKLIIHEWRTGDEEIFARLFDPNAKMRHLVDGRDDQHVGREKTVHVLLKVLEDLGIKHIKHEHITIQGDWVHMHTTLNVDGREIKVEMHFVVINGKYKSVEERTK | 0.966
12 | DEEEELYRIALEESIRTLKTGDEDRVHELFDPRARIIVNGREFHGRERATKWAFDWIHKVKNMRFELRDFRIQGDKIIIHGKLHVNGQETEIIIIIHKIDGRWLIEQVEVR | 1.4
13 | DEEEEMAHRLVEQHDEFIRTGDERINHELADPHAKVEIGDKEFIGRETFSKLMVEWRTREIRLTHIEVINGQVHLYQDVRVDYNGKEMHQHVRWDSLKINGKWFDHSVHIK | 0.317
14 | DEEEEMAKKILDDLTHLLETGDEEVFRHLADPNVKVDELVNGRKIHRHGRQDWREIFKEMRLRHIHIRRVHVQGDKLHNDIEVDGDFNGRSHRDRTELILVIVDGRLRTIEIHVN | 1.18
15 | DEEEEMIEKIFKHLVEALRTGDWRQLEKLFDPNVRIEIGDKHSVGREEAVKFLEEWRKRADHIEHIDFRNRRSVDGRIEIEGRHLGHIDGRLVNTRVEFEIVIVDGKIEYNRLHVL | 1.58
16 | DEEEEMRRRQTTLFLEAWITGDWDLIQRLLDPHTRVDVNGVEIHGMEEFARWFREKKEKVKNLRSHLTDIELQGEKVILYGIDTVNGKTHKVRVKVDIVDGVIKEVRFDLR | 1.4
17 | DEEEEMSKEATEWFKRVSKTGDEKDLVEFLDPNVLLEIGDKRFHGREVASHWMTRMFHEIRIRHIEEKEFRIYNGRATLHEHLDIEFDGRTSKIHVTVVYIKVNGRWFMESLHIR | 0.808
18 | DEEEEMSKELAELLVKAFVTGDWEEMTSMADPRTRTDVNGKDLHGWDESLRVIEELLRKMGIKHSNIHTVRVQGNWIHIDIRVIVGDKYHEVEIRVLVVNGRLKYLEYRIK | 1.98
19 | DEEEEMVLEMAYLFIHALHTGDEDMIRHLADPNMKVDINGQEHHGRDMSNEWWRREIDQIKNVRVDIDIDELHVIDGVAYVRTTVRYHFDGRTIVYFTTFDLIIVNGKIKSVKWEVE | 1.83
20 | DEEEEMVREVLHRVIHNILTGDEDSVSRMADPHVRVKEIINGKEFTLHGREMMLHMIREWRNRADHVEIHIRRSRVINGRLDSHGLLIIEINGKEIRHDTNLHLYVVDGVIKILTWNIE | 1.45
21 | DEEEENMRIAFKLLIEMHRTGDPEEHLELFDPHVRSIIGDKEYHGWEEYMRWIQHARVKELKLDSHRVYNGRVELDVRINVDVNGREIDREVHIIAEKVNGRWHFKSVRVL | 1.41
22 | DEEEENSRRAIEIVLQHMETGDEKTLEELVDPHVKLHYGDKTSHGRHHVAHLIMRLGVKHSRVEHVDSQGDKVFFFTRMRIGDKHFDTRVILLKVDGKWQIHELKFD | 1.96
23 | DEEEEQAHTMLEIFLHNLVTGNEETINTLMDPHARTDIDGKIFHGRDWLEHFLRRFPHVRLHLKHIEWRVINGVAHLHLEMHVNVDGRHFDVRFHIHNEKINGRWFSHSFKYSIE | 1.44
24 | DEEEEQARDLTKLLEKLWATGDEHTLLRLLDPNARNIVGDKEHHGREILLKFWRHLGVSRVESKIEDVKVFDGRVYIKGRVRFDGVELETEIESEKVNGQWHIRIIRMR | 1.79
25 | DEEEEQARHMVMLFLRYILTGDEKHFQTLADPDVRTDVNGKEHHGREEATRTLRLYIELMGADHIQLKDWEIEVQGEFVRLRLHVQVDVGDKHLRTDLHFEIKKVNGQWVVHQVVIKTL | 2.19

Row | Sequence | protease stability score
26 | DEEEEQTHHMFKRILEVLRTGDERMLLDLADPHVRLEVGDKHMIGMDSLVHFNARIKNMRIRLRSIDFQGDYAHINTELEFDGRNHHITIVVLKVDGKWIIRSQHVK | 1.46
27 | DEEEERARHWIERFVRAVLTGDWEHILRNADPNVRLHVGDKEIHGRERMIETFREFWERYPGVRIKIHQVEIQGEKSHLDGEIRFDGRRFRVEFEVVIINGKIHELHIRIH | 2.62
28 | DEEEERARRDLFIWAHAVKTGDEKRYKELFDPNDKLDINGQEIHGMESVVKLIRHIRIEDIHLHLHDIRLIGDKLHVDGQIRQHTHVGDKRVHDTINVNDIVHKVNGQWHWKSIIYH | 1.03
29 | DEEEEREKELRERWEHFLKTGDWKKIEELADPHVRLDVGDKELVGRELFVEFIRRLLEHLGFNVFRINHIDLQGEKINMDVEREIGDKSTRVELHILKIDGQWILKRVIIN | 1.82
30 | DEEEERFEEVWRRLARALETGDEETVRHLIDPNVLIIIGDKTIHGWESLSTYLKEIRLTISDMRVRSRSEVNGKLEFDTHTHRVVFINGVELHVEERIHITMLKIDGRWHIHSIEFR | 1.45
31 | DEEEERLEELSKLLLEMVLTGNWDETLELADPHALIEIGDKRFHGWEHWVKLYLRIKNVRFELRIDSVRPIGDKAEIDGHVIIRIGDKEKEFDLRVEIDVVDGRLKENSIRRR | 1.35
32 | DEEEERLEKLAEILIHYHLTGDFEILLEYADPNVQTEFDGVEIHGMELSNKFLEKSNKKLGVDHRHYKSYSAYGNKVTVLSEIHVNGRKMEVRFRWDVVNGKIQTLHIHFD | 1.05
33 | DEEEERMDRAYDHWRENILTGDWKRLRELADPHAKMDINGVDIHGMETFNKILSEELKEIRLKDVHIDDKHVVDGQLHVHGKRETLFNGKNTWIKTHIHLVIIDGRFHSYTVHIE | 0.281
34 | DEEEERMQEKLHRYLHDLVTGDEEEFHKYADPHVKTRVGDKILHGREKAREFWHEIRIKDIKLDHKDIQGDFVRLHVRVHGRINGQDIDFRVEIFFRKINGRWIIESQEIN | 0.816
35 | DEEEERRRHLIDVLLRLWHTGDEESFTNLADPHVRIHVGDKIFHGREAASRWMHNVREHWRLHHERDHDVKIQGEKVVRDGHVDIEFNGVRVRTRVEIILTVVNGQIKLIEIRIL | 1.26
36 | DEEEERTERVSQLFWELFLTGDEEELFKLVDPHVRSHVGDKDYHGRETAHEIWHRIKNVRMRLDHVELRIVNGRADLHVRGKLIIGDKKVELNIEILVVKVNGQWLVERIRVETK | 1.31
37 | DEEEERTKHHFELLFKLWTTGDEDSLSHLADPNVRVHVDGKDFHGWEDMKDFMREWIERFKNVRLELKHFEAQGDKASSEIKIHYGDKHVTEFIEIILFNGRLHEIRRLFKRD | 1.01
38 | DEEEERVIHIMHLFLEHISTGDEDKVKHLMDPNVRVFIGNKQHVGMHEIIKHLREWRIELDDVRTEEVRIQGDKLHLNGRLHVTLEFNGRRIRTTVRTTNIFRKVDGRWILEAIHID | 1.58
39 | DEEEERVRNFVERLSKAVRTGDEEEMRDLFDPDVKSRQGDKDVIGRELVAEWLSKFFLRRGIEVHFELKRFEFQGDYLHLRLHVEVRIDGKDHTLTMYVLLIKVDGRWILHSIHRE | 1.54
40 | DEEEERVRRIMKEFIESLLTGDFRILTELMDPNARLHVDGVELHGRETMRKFWKDRERELGVENFDAKQRDVRLINGKAHNDGELLINGQVTKWILRVEKVDGRWRLHHIELH | 0.231
41 | DEEEESNRHLAEKFEEHHRTGDWRMMSKMFDPHVRVERIFNGRTVIIHGWEKYVKTVKDEFERIKGARLIIDDMKVQGEKSRVEGTLKINGRTVEVDIHLDIVDGRLRHVRIEIE | 0.201
42 | DEEEESSHNALKYWMHSLITGDEHTIERLADPHVLMVVNGKTFHGMERFHEALHEFNERIDHIERIEIKDMKIFDGRVIVELKVHGRIGDKRHELETYLVILKYDGKWHLHSISVK | 0.964
43 | DEEEESTKRVAKVLHHTNRTGDEKTMNEMLDPNAKQDYNGRINIGWERILEVLREWKDRLGLTRIELHIHDFDIQGDKARIDTTVDFNGVEFKLIIYVRKIDGKWVLERIEVR | 0.368
44 | DEEEESYRIAEHLFREVMETGDERISEHLADPRTRFQVGDKTFHGMDEWREVLHRMLVEIRMHDVKVHDVKSIGDKLIIDGYLYIEINGRRTSIYTELYWLKVNGQWRLHYITMH | 1.12
45 | DEEEETARRLTEELIRSQKTGDWEFLLRLMDPHAKSDINGVHVVGMEETVRILEKLLRDLGVTKVEALLHRVHFIDGRVHVDSEERYGDKWFRVHFTVQKINGKWVIRSIEVR | 1.4
46 | DEEEETEKKWADIFTKAWITGDEETLERLMDPNVKYHQEVGDKHWSAHGREEVSRHIHELLKHLGVKVVELRRIHVINGVVHVDGKTIVNGREFTVHIHYRIVDGRVREIRFEFR | 2.22
47 | DEEEETIRKYIEMMIRLWETGDEKSMLDLFDPDVRTLVNGQHLHGRHALEILLRRIDVRRHVHLHHIDLQGNKVEIDSRLEGTVDGKRDDIELTHHMVKVDGQWVIHNVEVR | 1.02
48 | DEEEETIRRDAKLTLDLIRTGDEEHLKKMLDPHVRLQIVIGDKTIENHGREEVIRRLRHEWKRFKNMRILIEDKRVVGNWVHFFGTILYNGVEHEAVLDLVLIDGVLHSIRINVI | 1.6
49 | DEEEETLREMLRMSKEALETGDETELHELFDPNVRVVVDGVTLHGWEAWSQFLREIRLSIREVRIKRVDRVDGKIIIDGKFHRIIIQGDKTRENTIDAEVLIRKVDGKWVYEHDSYL | 0.823
50 | DEEEETLRWVKELLKHLSKTGDFEKIVNYMDPDVRLNVDGVELVGMHHLERLAKEIRFKIHDLHPRRERIFDGKIQMDVEIDRIIHYGDKTTRERTTIIIIFEKVNGRWLIHTIHVH | 1.17
